Here are results for one substance from publication PMC5488163.

This assay deals with free 17K‐apo(a) variant (purified recombinant apolipoprotein(a) with 17 KIV domains) (human). Nature of the assay: co-IP.

With “purified HCVcc, infectious hepatitis C virus particles (JFH1‐CS‐A4‐RLuc‐TM) (complex)”, the percent of HCV RNAs coimmunoprecipitated is 39.9%.
